Experimental data from article PMC11169541 (2024).

T1: SARS-CoV-2 N protein (nucleocapsid) peptide on HLA-A*02:01 (human)
T1 peptide: RTATKAYNV

T2: SARS-CoV N protein (nucleocapsid) peptide on HLA-A*02:01 (human)
T2 peptide: RTATKQYNV

B1: TCR-2 (TCR)
alpha TRAV4*01 TRAJ34*01 CDR3: CLVGDVDTDKLIF
beta TRBV20-1*05 TRBJ1-6*01 CDR3: CSASHPGDSPLHF
B2: TCR-4 (TCR)
alpha TRAV17*01 TRAJ27*01 CDR3: CATDEDTNAGKSTF
beta TRBV4-1*01 TRBJ1-1*01 CDR3: CASSPDPWGVDTEAFF

Tests used:
[1] = target: T1, SARS-CoV-2 N protein (nucleocapsid) …; experiment: multimer staining
[2] = target: T2, SARS-CoV N protein (nucleocapsid) …; experiment: multimer staining

Row | Binder | binding result [1] | binding result [2]
1 | B1 | recognises | no recognition
2 | B2 | recognises | no recognition
